Reference: patent US20250297004A1, “NECTIN-4 BINDING AGENTS” (INNATE PHARMA, priority 2022, published 2025)
Positions count from the first letter of the chain named.

Key:
[1] = molecular target: T1, cynomolgus Nectin-4 protein expressed on CHO cells (cynomolgus, UniProt Q96NY8 32-510 (human entry)); assay: flow cytometry on CHO cells expressing cynomolgus Nectin-4, Median MFI (PE)
T1 construct: also called Cyno Nectin-4 V5
T1 chain: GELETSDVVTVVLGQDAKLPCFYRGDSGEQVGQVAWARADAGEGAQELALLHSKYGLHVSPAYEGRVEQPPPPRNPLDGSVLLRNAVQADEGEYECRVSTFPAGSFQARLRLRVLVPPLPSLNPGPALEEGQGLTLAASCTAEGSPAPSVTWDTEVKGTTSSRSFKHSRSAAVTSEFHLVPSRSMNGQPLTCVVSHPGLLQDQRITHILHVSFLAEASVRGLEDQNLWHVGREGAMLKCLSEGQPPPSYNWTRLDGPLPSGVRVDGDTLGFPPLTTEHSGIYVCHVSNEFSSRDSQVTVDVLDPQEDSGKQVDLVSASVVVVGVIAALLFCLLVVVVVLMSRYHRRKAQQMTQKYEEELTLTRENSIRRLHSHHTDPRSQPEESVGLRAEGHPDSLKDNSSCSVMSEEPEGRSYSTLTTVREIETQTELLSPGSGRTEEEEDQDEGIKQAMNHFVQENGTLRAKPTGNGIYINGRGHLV
Method: (§1) Anti-Nectin-4 antibodies were tested by flow cytometry for binding to different CHO cell lines made to express respectively the mouse, cynomolgus and rat Nectin-4 protein (including an N-terminal V5 tag not shown in the sequences below).

[2] = molecular target: T2, human Nectin-4 expressed on cells (human, UniProt Q96NY8 32-510); assay: cell-based or functional assay
T2 sequence: T1 chain with A39V, V230I, T437A

[3] = molecular target: T3, human Nectin-4 Mutant 7 (human, UniProt Q96NY8 32-510); assay: binding to HEK293T cells expressing Nectin-4 mutant; '-' means association does not occur
T3 construct: Expressed on transfected HEK293T cells; also called S195A/K197T/S199A
T3 chain: T1 chain with A39V, S164A, K166T, S168A, V230I, T437A

[4] = molecular target: T4, human Nectin-4 Mutant 7bis (human, UniProt Q96NY8 32-510); assay: binding to HEK293T cells expressing Nectin-4 mutant
T4 construct: Expressed on transfected HEK293T cells; also called A72P/G73N/K197T/S199A
T4 chain: T1 chain with A39V, A41P, G42N, K166T, S168A, V230I, T437A

[5] = molecular target: T5, human Nectin-4 Mutant 1 (human, UniProt Q96NY8 32-510); assay: binding to HEK293T cells expressing Nectin-4 mutant; '-' means association does not occur
T5 construct: Expressed on transfected HEK293T cells; also called S58P/G59D/Q61A/N106D/P107A
T5 chain: T1 chain with S27P, G28D, Q30A, A39V, N75D, P76A, V230I, T437A

[6] = molecular target: T6, human Nectin-4 (Homo sapiens, UniProt Q96NY8); assay: Species cross-reactivity, binding to Nectin-4
T6 sequence (Q96NY8 32-510): T1 chain with A39V, V230I, T437A
Method: as §1
Antibody 5E7 bound human, cynomolgus, as well as rat Nectin 4 proteins but lack binding to the mouse Nectin 4 protein. FIGS. 6A and 6B show binding of anti-Nectin-4 antibodies on rat and cynomolgus Nectin-4-expressing CHO cell lines.

B1: chimeric parental 5E7 antibody (antibody, V domains shown)
VH: QVQLQQPGAELVKPGASVKLSCKASGYIFTSYWMHWVKQRPGQGLEWIGEIDPSDSYTNYNQKFKGKATLTLDKSSSTTYMQLSSLTSEDSAVYYCVRGYGNYGDYWGQGTTLTVSS
VL: DVVMTQAAFSNPVTLGTSASISCRSSKSLLHSNGITYLYWYLQKPGQSPQLLIYQMSNLASGVPDRFSSSGSGTDFTLRISRVEAEDVGVYYCAQNLELPWTFGGGTKLEIKR
notes: Chimeric antibody, murine variable domains with human constant regions; also called ch5E7; CHG1-M-1N4-5E7
Question: B1 was tested. Which “EC50 (read off the curve)” value [1] did it give?
Answer: ~0.03 µg/mL

Question: And the “internalization efficiency on SUM190, normalized to chimeric parental antibody (Fab-ZAP, CTG), experiment 1” value [2]?
Answer: 100 % of chimeric parental

Question: And the “internalization efficiency on SUM190, normalized to chimeric parental antibody (Fab-ZAP, CTG), experiment 2” value [2]?
Answer: 100 % of chimeric parental

Question: Does B1 bind [3]?
Answer: no binding

B2: N41 (antibody, V domains shown)
VH: QVQLKQSGPGLVQPSQSLSITCTVSGFSLTNYGVHWVRQSPGKGLEWLGVIWSGGSTDYNAAFISRLSISKDTSKSQVFFKMNSLQADDTAIYYCARELIHAMDNWGQGTSVTVSS
VL: DIQMTQSPASLSVSVGETVTITCRASENIYSNLAWYQQKQGNSPQLLVFAATNLADGVPSRFSGSGSGTQYSLKINSLQSEDFGTYYCQHFWGTPTFGGGTKLEIK
Question: Does B2 bind [4]?
Answer: binds

Question: Does B2 bind [5]?
Answer: no binding

B3: 5E7 (antibody, V domains shown)
VH: QVQLQQPGAELVKPGASVKLSCKASGYIFTSYWMHWVKQRPGQGLEWIGEIDPSDSYTNYNQKFKGKATLTLDKSSSTTYMQLSSLTSEDSAVYYCVRGYGNYGDYWGQGTTLTVSSASTKGP
VL: DVVMTQAAFSNPVTLGTSASISCRSSKSLLHSNGITYLYWYLQKPGQSPQLLIYQMSNLASGVPDRFSSSGSGTDFTLRISRVEAEDVGVYYCAQNLELPWTFGGGTKLEIKRTVAAP
Question: How did the “binding to human Nectin 4 protein” value [6] turn out when B3 was run?
Answer: bound
